Target: Skp1 (mouse, endogenous in RAW264.7 cells) (mouse (endogenous in RAW264.7)) (UniProt Q9WTX5)
UniProt Q9WTX5, sequence (Q9WTX5 whole entry): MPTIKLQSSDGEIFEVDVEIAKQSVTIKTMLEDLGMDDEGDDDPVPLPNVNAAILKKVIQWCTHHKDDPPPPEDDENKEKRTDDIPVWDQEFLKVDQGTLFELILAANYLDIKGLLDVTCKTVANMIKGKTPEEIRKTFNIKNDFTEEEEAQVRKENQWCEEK

GogB Δ264–352 (in-frame deletion of the F-box-like domain), HA-tagged, delivered by the T3SS (natural protein)
NFκB-driven luciferase in RAW264.7 cells infected with ΔgogB complemented with GogBΔ264–352 (F-box motif deleted), fold of wild type Salmonella (fold of wild type): 4

GogB-NT (amino acids 1-253, N-terminal LRR domain), HA-tagged, delivered by the T3SS (domain or fragment)
NFκB-driven luciferase in RAW264.7 cells infected with ΔgogB complemented with GogB-NT (C-terminal domain deleted), fold of wild type Salmonella (fold of wild type): 4

— article PMC3386239
